We go through one substance from patent US5496831.

The target in this data set is E2F-1 (UniProt Q01094). As to the kind of experiment: cell_activity. Particulars: CHO cells, -T antigen; CAT/bGAL 5.2 vs 2.6.
Sequence of E2F-1 (Q01094 whole entry): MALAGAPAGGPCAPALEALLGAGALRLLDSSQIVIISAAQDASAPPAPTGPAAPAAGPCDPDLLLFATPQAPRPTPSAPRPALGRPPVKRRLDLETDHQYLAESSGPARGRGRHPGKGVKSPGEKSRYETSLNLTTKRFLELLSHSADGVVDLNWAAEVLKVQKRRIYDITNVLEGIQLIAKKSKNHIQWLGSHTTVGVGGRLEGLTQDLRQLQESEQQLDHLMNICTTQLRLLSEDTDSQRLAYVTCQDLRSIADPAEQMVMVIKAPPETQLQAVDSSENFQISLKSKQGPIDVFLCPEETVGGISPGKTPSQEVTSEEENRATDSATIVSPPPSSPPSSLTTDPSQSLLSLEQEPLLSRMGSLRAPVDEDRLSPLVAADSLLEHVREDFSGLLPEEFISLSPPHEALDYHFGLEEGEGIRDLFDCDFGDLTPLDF

The substance HGAPDH promoter (-487 to +21)-CAT had an activity of 2 fold.
